Experimental data published in the Human Domainome abundance scans (Beltran et al. 2025).
± gives the uncertainty stated by the source.

B1: POU domain, class 3, transcription factor 1, residues 247 to 324; numbered along this chain, Q03052 (parent)
chain: EDAPSSDDLEQFAKQFKQRRIKLGFTQADVGLALGTLYGNVFSQTTICRFEALQLSFKNMCKLKPLLNKWLEETDSSS

Variants of: B1
Assay: abundance fitness (aPCA) (normalised: wild type 0, dead -1); higher = more abundant; growth selection in yeast, the domain comes from the species named
Conditions: Homo sapiens

| Variant | abundance fitness |
| --- | --- |
| EDAPSSDDLEQFAKQFKQRRIKLGFTQADVGLALGTLYGNVFSQTTICRFEALQLSFKNMCKLKPLLNKWQEETDSSS [L71Q] | -0.504 ± 0.16 |
| EDAPSSDDLEQFAKQFKQRRIKLGFTQADVGLALGTLYGNVFSQTTICRFEALQLSFHNMCKLKPLLNKWLEETDSSS [K58H] | -0.07 ± 0.13 |
| EDAPSSDDLEQFAKQFKQRREKLGFTQADVGLALGTLYGNVFSQTTICRFEALQLSFKNMCKLKPLLNKWLEETDSSS [I21E] | 0.005 ± 0.073 |
| EDAPSSDDLEQFAKQFKQRRIKLGFTQADVGLALGTLYGNVFSQTTIQRFEALQLSFKNMCKLKPLLNKWLEETDSSS [C48Q] | 0.064 ± 0.078 |
| EDAPSSDDLEQFAKQFKQRRIKLGFTQADVGLALGTLYGNVFSQTTICRFEALQWSFKNMCKLKPLLNKWLEETDSSS [L55W] | -0.764 ± 0.1 |
| EDAPSSDDLEQFAKQFKQRRIKLGFTQADVGLALGTLYGNVFSQTTICRFEALQLSFKNMCKLCPLLNKWLEETDSSS [K64C] | -0.38 ± 0.13 |
| EDAPSSDDLEQFAKQFKQRRIKLGFTQADVGLALGTLYGNVFSQTTICRFENLQLSFKNMCKLKPLLNKWLEETDSSS [A52N] | 0.23 ± 0.11 |
| EDAPSSDDLEQFAKQFKQRRIKLGFTQADVGLALGTLYGNVFSQTTICRFEALQLSFKNMCKLKTLLNKWLEETDSSS [P65T] | -0.246 ± 0.083 |
| EDAPSSDDLEQFAKQFKVRRIKLGFTQADVGLALGTLYGNVFSQTTICRFEALQLSFKNMCKLKPLLNKWLEETDSSS [Q18V] | -0.316 ± 0.083 |
| EDAPSSDDLEQFAKQFKQRRIKLGFTQADVGLALGTLYGNVFSQTTICRFEALQLSFKNMCKLKMLLNKWLEETDSSS [P65M] | -0.332 ± 0.1 |
| EDAPSSDDLEQFAKQFDQRRIKLGFTQADVGLALGTLYGNVFSQTTICRFEALQLSFKNMCKLKPLLNKWLEETDSSS [K17D] | -0.893 ± 0.38 |
| EDAPSSDDLEQFAKQFKQRRIKLGFTQAGVGLALGTLYGNVFSQTTICRFEALQLSFKNMCKLKPLLNKWLEETDSSS [D29G] | -0.241 ± 0.058 |
| EDAPSSDDLEQFAKQFKQRRIKLGFTQADVGLALGTLYGNVFSQTTICRFEALALSFKNMCKLKPLLNKWLEETDSSS [Q54A] | -0.089 ± 0.063 |
| EDAPSSDDLEQFAKQFKQRRIKLGFTQADVGLALGTLYGNVFSQTTICRFEALQLSFKHMCKLKPLLNKWLEETDSSS [N59H] | 0.096 ± 0.1 |
| EDAPSSDDLEQFAKQFKQRRIKLGFTQADVGLALYTLYGNVFSQTTICRFEALQLSFKNMCKLKPLLNKWLEETDSSS [G35Y] | -0.313 ± 0.31 |
| EDAPVSDDLEQFAKQFKQRRIKLGFTQADVGLALGTLYGNVFSQTTICRFEALQLSFKNMCKLKPLLNKWLEETDSSS [S5V] | 0.045 ± 0.062 |
| EDAPSSDDLEQFAKQFKQRRIKLGFTQADVGLALGGLYGNVFSQTTICRFEALQLSFKNMCKLKPLLNKWLEETDSSS [T36G] | -0.166 ± 0.052 |
| EDAPSSDLLEQFAKQFKQRRIKLGFTQADVGLALGTLYGNVFSQTTICRFEALQLSFKNMCKLKPLLNKWLEETDSSS [D8L] | -0.491 ± 0.15 |

| Variant | abundance fitness |
| --- | --- |
| EDAPSKDDLEQFAKQFKQRRIKLGFTQADVGLALGTLYGNVFSQTTICRFEALQLSFKNMCKLKPLLNKWLEETDSSS [S6K] | 0.49 ± 0.067 |
| EDAPSSDDLEQFAKQFKQRRIKIGFTQADVGLALGTLYGNVFSQTTICRFEALQLSFKNMCKLKPLLNKWLEETDSSS [L23I] | -1 ± 0.49 |
| EDAPSSDDLEQFAKQFKQRRIKLGFTQADVGLALGTLYGNVFSPTTICRFEALQLSFKNMCKLKPLLNKWLEETDSSS [Q44P] | 0.132 ± 0.064 |
| EDAPSSDDLEQFAKQFKQRRIKLGFTQADVGLALGTLYGNVFSQTTICRFEALQLSFKNMCKLPPLLNKWLEETDSSS [K64P] | -0.643 ± 0.2 |
| EDAPSSDDLEQFAKQFKQRRIKLGFTQADVGLALGTLYGNVFSQTKICRFEALQLSFKNMCKLKPLLNKWLEETDSSS [T46K] | -0.304 ± 0.12 |
| EDAPSSDDLEQFAKQFKQRRIKLGFTQADVGLALGTLYGNVFSQTTICRFEALQLCFKNMCKLKPLLNKWLEETDSSS [S56C] | -0.439 ± 0.1 |
| EDAPSSDDLEQFAKQFKQRRIKLGFTQADVGLALGTLYGNVFSQTTICRFEALQLSFKNMCKLKPLLEKWLEETDSSS [N68E] | 0.082 ± 0.059 |
| EDAPSSDDLEQFAKQFKQRRIKLGFTQADVGLALGTLYGNVFSQTTICRFEALQLSFKNMCKLKPLLNKWEEETDSSS [L71E] | -0.63 ± 0.12 |
| EDAPSSDDLEQFAKQFKQRRIKLGFTQADVGLPLGTLYGNVFSQTTICRFEALQLSFKNMCKLKPLLNKWLEETDSSS [A33P] | -0.645 ± 0.2 |
| EDAPSSDDLEQFAKQFKQRRIKLGFTQADVGLALGALYGNVFSQTTICRFEALQLSFKNMCKLKPLLNKWLEETDSSS [T36A] | -0.162 ± 0.072 |
| EDAPSSDDLEQFAKQFKQHRIKLGFTQADVGLALGTLYGNVFSQTTICRFEALQLSFKNMCKLKPLLNKWLEETDSSS [R19H] | -0.456 ± 0.21 |
| EDAPSSDDLEQFAKQFKQRRIKLGFTQADVGLALGTLYGNVFSQTTICRFEALQLSFKNMCKDKPLLNKWLEETDSSS [L63D] | -0.297 ± 0.17 |
| EDAPSSEDLEQFAKQFKQRRIKLGFTQADVGLALGTLYGNVFSQTTICRFEALQLSFKNMCKLKPLLNKWLEETDSSS [D7E] | 0.089 ± 0.08 |
| EDAPSSDDLEQFAKQFKQRRIKLGFTQADVGLALGTLYGNVFSQTTICRFEALQLSFKNMCKLKVLLNKWLEETDSSS [P65V] | -0.113 ± 0.05 |
| EDAPSSDDLEQFAKQFKQRRIKLGFTQADVGLALGTLYGNVFSQTTICRFEALQLSFKNMCKLKPLLNKWLEETDSSD [S78D] | 0.212 ± 0.16 |
| EDAPSSDDLEQFAKQFKQRRIKLGFTQADVGLALGTLYGNVFSQTTICRFEALQLSFLNMCKLKPLLNKWLEETDSSS [K58L] | -0.347 ± 0.078 |
| EDAPSSDDLEQFAKQFKQRRIKLGFTQADVGLALGTLYGNVFSQTTICRFEALQLSFKNMCKLKPLLNKWLEETDSQS [S77Q] | 0.106 ± 0.056 |
